Data reported in patent publication US8809529B2, “Imidazo[1,2-α]pyrazine derivatives” (Promega Corporation, priority 2010, dated 2014).

Columns and labels:
[1] = Luminescence of OgLuc variants expressed in HEK293 cells; assay type: cell-based, human; settings: for Increase in Luminescence: HEK293: normalized to 9B8 opt
Protocol: The PCR library in the pF4Ag-based non-fusion background was screened for additional variants with increased luminescence compared to 9B8 opt+K33N+170G (SEQ ID NOs: 68 and 69). Selected variants were then assayed in HEK293 and NIH3T3 cells. For each cell type, 15,000 cells were plated and grown overnight at 37° C. The next day, the cells were transfected as described in Example 25 with 10 ng pGL4.13 (Promega Corp.) as a transfection control and 100 ng of the OgLuc test DNA. The media was removed, and the cells were lysed with 100 μL of lysis buffer as described in Example 25 except the lysis buffer contained 100 mM MES pH 6.0 instead of HEPES, and luminescence measured using a GLOMAX® Luminometer.
Based on the above data, further combination variants were designed and generated (see Table 10) in the context of the pF4Ag-based non-fusion vector background without the 170G. The variants were analyzed in E. coli, HEK293 and NIH3T3 cells as described above and compared to 9B8 opt+K33N. The variants were also examined for luminescence with native coelenterazine.
The brightness of the variants expressed in HEK293 and NIH3T3 cells was measured as described previously. The luminescence of the variants was normalized to the luminescence generated by 9B8 opt (Table 27).
The variants 9B8 opt+K33N+T39T+K43R+Y68D (“V2”; SEQ ID NOs: 92 and 93), 9B8 opt+K33N+L27V+K43R+Y68D (SEQ ID NOs: 339 and 340), 9B8 opt+K33N+L27V+T39T+K43R+S66N (SEQ ID NOs: 341 and 342), and 9B8 opt+K33N+L27V+T39T+K43R+Y68D (“L27V”; SEQ ID NOs: 88 and 89) were subcloned into the Id-OgLuc-HT7 sandwich background as described above and assayed in HEK293 and NIH3T3 cells as described above. The luminescence generated by the sandwiched variants were compared to the luminescence generated by the […] sandwich (SEQ ID NOs: 59 and 60) (Table 38). The L27V sandwich (SEQ ID NOs: 90 and 91) and V2 sandwich (SEQ ID NOs: 94 and 95) had at least 1.3× fold-increase in luminescence in HEK293 and NIH3T3 cells.
The sandwich and non-sandwich versions of the variants V2, 9B8 opt+K33N+L27V+K43R+Y68D, 9B8 opt+K33N+L27V+T39T+K43R+S66N, and L27V were assayed in HEK293 and NIH3T3 cells as described in Example 37. The luminescence generated by the non-sandwiched variants was compared to the luminescence generated by the sandwiched variants (Table 39).

[2] = Stability of secreted OgLuc variants in saved media; assay type: physicochemical; settings: secreted variant in media
Protocol: To determine if the secretion signal sequence of OgLuc facilitates its secretion, the OgLuc variants 9B8, V2 and L27V were cloned into pF4Ag containing an N-terminal OgLuc secretion signal sequence. The variants were also cloned into vectors without the secretion signal sequence. CHO or HeLa cells were then plates at 100,000 cells/well in 1 mL F12 media with 10% FBS and 1× sodium pyruvate (CHO cells) or DMEM with 10% FBS and 1× sodium pyruvate (HeLa cells) into 12-well plates and incubated overnight at 37° C., 5% CO2.
After the overnight incubation, the cells were transfected with 1 μg plasmid DNA containing 9B8, V2, or L27V with or without the secretion signal sequence using the TRANSIT®-LT1 transfection reagent (Minis Bio) and OPTI-MEM® media (Invitrogen). The cells were again incubated overnight at 37° C., 5% CO2.
After the second overnight incubation, the media was removed and saved for analysis. […] To 10 μL of cell lysate or saved media from each sample, 50 μL assay buffer with 40 μM FBI-3939 was added, and luminescence measured as described above.
To determine the stability of the secreted variants, 150 μL aliquots of the saved media from each sample was placed at 37° C. or 50° C. The aliquots were then removed at different time points ([…]), frozen on thy ice, and kept at −20° C. until assayed. To assay for stability, the media aliquots were thawed to room temperature, and 10 μL of each aliquot was mixed with assay buffer with PBI-3939 (pH 6.0) as described above. Luminescence was measured as above, and the half-life (t50) determined (Table 34).

[3] = assay type: biochemical, E. coli
Protocol: The signal stability of 15C1 with PBI-3945 and 9B8 with PBI-3889 was measured and compared to IV. E. coli containing plasmid DNA encoding 15C1, 9B8, or IV were grown and induced as described previously in 8-well replicates. Cells were lysed using a lysis buffer containing of 300 mM HEPES pH 8.0, 0.3× Passive Lysis Buffer (“PLB”; Promega Corp. Cat. No. E194A), 0.3 mg/mL lysozyme, and 0.003 U/μL RQ1 DNase. Lysates were diluted 1:1000 in lysis buffer and measured for luminescence using a TECAN® INFINITE® F500 luminometer. Measurements were taken immediately after the addition to 10 μL of diluted lysate sample of 50 μL of “Glo” 0.5% TERGITOL assay buffer (“0.5% TERGITOL”), which contained 150 mM KCl, 1 mM CDTA, 10 mM DTT, 100 mM thiourea, 0.5% TERGITOL® NP-9 (v/v), and 20 μM of either novel coelenterazines PBI-3945 or PBI 3889.
The signal stability of the variants was determined by re-reading the plate every 30 seconds for a length of time after the addition of the assay buffer to the sample. The signal half-life was determined from these measurements using methods known in the art. The average signal half-life was compared between the variants and IV. […] At t=10 min, luminescence for 15C1 with PBI-3945 and 9B8 with PBI-3889 were equivalent.
E. coli lysates containing the variants were prepared and analyzed as described previously except the assay buffer contained 0.25% TERGITOL® NP-9 (v/v), 100 mM MES pH 6.0, 1 mM CDTA, 150 mM KCl, 35 mM thiourea, 2 mM DTT, and 20 μM PBI-3939.

[4] = tested on: cAMP-response element (CRE); assay: cAMP transcriptional reporter in HEK293 cells (Example 36); settings: for fold-induction: FSK 5 hrs

Molecule	Fold-Decrease in Luminescence in the Presence of Sandwich Background: HEK 293 [1]	Fold over 9B8 opt + K33N: HEK293 ([1]; luminescence, PBI-3939)	Increase in Luminescence: HEK293 [1]	Fold over Native Coelenterazine: HEK293 ([1]; relative specificity for PBI-3939)	½ life 37° C. [2] [days]	½ life 50° C. [2] [h]	signal half life [3] [h]	signal half-life [3]	induced luminescence higher than Luc2 transcriptional reporter [4]	induced luminescence higher than induced Renilla transcriptional reporter [4]	fold-induction ([4]; 30 ng of DNA)	fold-induction ([4]; 100 ng of DNA)
L27V: 9B8 opt+K33N variant with L27V, T39T, K43R, Y68D (protein) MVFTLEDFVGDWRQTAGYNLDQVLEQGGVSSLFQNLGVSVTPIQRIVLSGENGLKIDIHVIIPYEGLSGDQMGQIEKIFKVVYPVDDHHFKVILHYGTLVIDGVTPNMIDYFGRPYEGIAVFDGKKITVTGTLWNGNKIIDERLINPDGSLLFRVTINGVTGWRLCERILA	6	0.8	1.6	97	17	11	1.9	–	–	–	–	–
9B8: IV variant with Q18L, F68Y, L72Q, M75K; in Tables 12, 22, 23, 26, 27 “9B8” stands for 9B8 opt (protein) MVFTLEDFVGDWRQTAGYNLDQVLEQGGLSSLFQKLGVSVTPIQKIVLSGENGLKIDIHVIIPYEGLSGYQMGQIEKIFKVVYPVDDHHFKVILHYGTLVIDGVTPNMIDYFGRPYEGIAVFDGKKITVTGTLWNGNKIIDERLINPDGSLLFRVTINGVTGWRLCERILA	–	–	1.0	–	8	3	1.23	at least 30 min	–	–	–	–
9B8 opt: codon optimized version of the 9B8 variant (protein) MVFTLEDFVGDWRQTAGYNLDQVLEQGGLSSLFQKLGVSVTPIQKIVLSGENGLKIDIHVIIPYEGLSGYQMGQIEKIFKVVYPVDDHHFKVILHYGTLVIDGVTPNMIDYFGRPYEGIAVFDGKKITVTGTLWNGNKIIDERLINPDGSLLFRVTINGVTGWRLCERILA	–	–	–	–	–	–	–	–	approximately 1.5 logs	approximately 2.5 logs	360	109
